Target: T1, human serum albumin (human, UniProt P02768 25-609)
T1 construct: also called HSA; humans serum albumin
Assay: SPR (Biacore), human serum albumin immobilized on CM5 chip, periplasmic Nanobody preparation injected in running buffer of pH 5, pH 6, pH 7 or HBS-EP+
Protocol: Human serum albumin is immobilized on a CM5 sensor chip surface via amine coupling using NHS/EDC for activation and ethanolamine for deactivation (Biacore amine coupling kit)
Approximately 1000 RU of cynomolgus and humans serum albumin respectively is immobilized. Experiments are performed at 25° C. […] This mixture is brought to pH7, pH6 and pH5 by adding HCl or NaOH (dependent on the pH of the mixture measured). Standard buffer HBS-EP+Periplasmic extracts or purified Nanobodies are diluted in running buffers of pH7, pH6 and pH5. The samples are injected for 1 min at a flow rate of 45 ul/min over the activated and reference surfaces. Those surfaces are regenerated with a 3 s pulse of glycine-HCl pH1.5+0.1% P20. Evaluation is done using Biacore T100 evaluation software.

B1: Nanobody 4A1 (VHH)
VHH: EVQLVESGGGLVQPEGSLRLSCRASGSIFSINTMGWYRQPPGKEREFVARIYPGITHYADSVKGRFTISRDNAKNTVYLQMNSLKPEDTAVYYCFYYYDDRNYWGEGTLVTVSS
notes: Injected as a periplasmic preparation of soluble Nanobody
Q: Does B1 bind?
A: binds

— US20120148571A1 (Ablynx, published 2012)
